B1: Steroid hormone receptor ERR2, residues 100 to 176; numbered along this chain, O95718 (parent)
chain: KRLCLVCGDIASGYHYGVASCEACKAFFKRTIQGNIEYSCPATNECEITKRRRKSCQACRFMKCLKVGMLKEGVRLD

± gives the uncertainty stated by the source.

Variants of B1 are the subject of the series. Nature of the series: abundance fitness (aPCA) (normalised: wild type 0, dead -1); higher = more abundant; growth selection in yeast, the domain comes from the species named. The conditions noted are these: Homo sapiens.
Consider Y14F, for which the abundance fitness was 0.063 ± 0.083. Next, Y14W: 0.032 ± 0.062; Y14N: -0.022 ± 0.11. Next, Y14K: 0.03 ± 0.077. For the variant Y14A, the abundance fitness amounted to 0.163 ± 0.063. Next, Y14V: 0.136 ± 0.043; E22F: -0.449 ± 0.12. As for E22S, the abundance fitness was -0.154 ± 0.05.

For E22V, the abundance fitness was -0.131 ± 0.048. E22H: the abundance fitness is -0.091 ± 0.074.

On to E22P, for which the abundance fitness was -0.188 ± 0.071. Next, E22W: -0.142 ± 0.053; V67F: -0.24 ± 0.15. As for V67E, the abundance fitness was -0.145 ± 0.058. Then V67W, with -0.665 ± 0.13; and K71G, with -0.166 ± 0.044; and K71Y, with -0.222 ± 0.12.

With K71S, the abundance fitness was -0.025 ± 0.054. As for K71N, the abundance fitness is -0.147 ± 0.093. Then E37C, with -0.158 ± 0.1. Then E37W, with -0.543 ± 0.079. As for E37K, the abundance fitness was -0.532 ± 0.13. For T49L, the abundance fitness was -0.117 ± 0.087. Next, T49I: -0.281 ± 0.12; T49R: -0.2 ± 0.062. T49F: the abundance fitness was -0.254 ± 0.17. As to C59P, the abundance fitness was -0.688 ± 0.2. Turning to C59F, the abundance fitness was -0.451 ± 0.18. Then C59E, with -0.704 ± 0.11; and C59I, with -0.542 ± 0.19; and R30W, with -0.121 ± 0.05. Then R30Y, with -0.799 ± 0.23; and R30G, with -0.006 ± 0.037; and V18F, with -0.428 ± 0.089.

On to V18Q, for which the abundance fitness is -0.375 ± 0.089.

Regarding V18P, the abundance fitness was -0.331 ± 0.078. Then V18H, with -0.245 ± 0.1; and D77Q, with 0.26 ± 0.13.

Turning to D77R, the abundance fitness was -0.11 ± 0.058. Then D77V, with -0.111 ± 0.068; and D77Y, with -0.29 ± 0.2; and D77H, with 0.082 ± 0.12. Next, Q33S: -0.252 ± 0.067.

For the variant Q33G, the abundance fitness is -0.165 ± 0.043. Next, Q33R: -0.307 ± 0.047; R60H: 0.254 ± 0.075.

As to R60F, the abundance fitness turned out to be 0.211 ± 0.075. With R60P, the abundance fitness was -0.798 ± 0.15. Then C21L, with -0.625 ± 0.076; and C21Q, with -1.01 ± 0.19; and C21E, with -0.814 ± 0.11. For the variant C21T, the abundance fitness is -0.871 ± 0.14. Consider C21M, for which the abundance fitness was -0.961 ± 0.15. Next, I10M: -0.065 ± 0.054; I10T: 0.02 ± 0.062; I10N: -0.393 ± 0.11. Next, I10W: 0.074 ± 0.06. Next, G17E: -0.027 ± 0.071; G17S: -0.266 ± 0.056. On to G17K, for which the abundance fitness is -0.477 ± 0.092. Then R75P, with 0.031 ± 0.068. On to H15Y, for which the abundance fitness was -0.085 ± 0.14. With H15K, the abundance fitness was -0.363 ± 0.099.

Consider H15P, for which the abundance fitness was -0.32 ± 0.092. Next, D9Q: -0.143 ± 0.078; D9Y: -0.351 ± 0.11; D9G: -0.208 ± 0.045. Then K63Y, with -0.982 ± 0.28. With K63L, the abundance fitness is -0.55 ± 0.062.

For K63A, the abundance fitness is -0.233 ± 0.052. Next, K63F: -0.931 ± 0.23; K63Q: -0.21 ± 0.064. Take F27C: the abundance fitness is -0.119 ± 0.063. F27D: the abundance fitness is -0.751 ± 0.18. Next, F27S: -0.746 ± 0.093; F27V: -0.535 ± 0.064; F27M: -0.473 ± 0.073. Regarding E72G, the abundance fitness was -0.122 ± 0.047. Next, E72P: -0.029 ± 0.065; E72D: -0.012 ± 0.086. E72L: the abundance fitness is -0.424 ± 0.066.

On to V6R, for which the abundance fitness was -0.739 ± 0.08. Then V6D, with -0.934 ± 0.24. Regarding K66E, the abundance fitness is -0.073 ± 0.075. Next, K66P: -1.27 ± 0.38; K66G: -0.256 ± 0.053. Then A42E, with 0.027 ± 0.055; and A42V, with -0.153 ± 0.049. Next, A42Q: -0.191 ± 0.068; A42K: -0.087 ± 0.062. Take C7V: the abundance fitness is -0.976 ± 0.12.

Turning to C7L, the abundance fitness is -1.17 ± 0.17. For the variant G13A, the abundance fitness is -0.751 ± 0.17. Then G13Q, with -0.244 ± 0.2. Next, G13R: -0.675 ± 0.14; N35A: 0.069 ± 0.045. In the case of N35L, the abundance fitness is -0.298 ± 0.05. As to N35P, the abundance fitness stood at 0.012 ± 0.069. On to N35F, for which the abundance fitness was -0.275 ± 0.12. On to S39L, for which the abundance fitness was found to be 0.283 ± 0.038. With S39V, the abundance fitness came to 0.294 ± 0.037. Then E45G, with 0.003 ± 0.042; and E45N, with -0.235 ± 0.12. As to E45M, the abundance fitness is -0.176 ± 0.068. With E45F, the abundance fitness was -0.329 ± 0.17. Then E45C, with -0.396 ± 0.11; and E45D, with -0.086 ± 0.086; and E45W, with -0.981 ± 0.2. Next, E45I: -0.288 ± 0.18; F61K: -0.266 ± 0.089; F61R: -0.487 ± 0.054. Then F61I, with -0.074 ± 0.088; and F61W, with 0.125 ± 0.047; and F61A, with -0.444 ± 0.077.

For the variant F61S, the abundance fitness is -0.509 ± 0.088.

Take V74I: the abundance fitness is -0.026 ± 0.088. For the variant V74F, the abundance fitness was -0.171 ± 0.091. Next, V74S: -0.017 ± 0.052. Then V74P, with -0.025 ± 0.094; and A26M, with -0.116 ± 0.058; and A26D, with 0.035 ± 0.081.

On to A26P, for which the abundance fitness is -0.569 ± 0.11. A26F: the abundance fitness is -0.467 ± 0.12.

For A26I, the abundance fitness is -0.334 ± 0.18. Next, A26K: -0.229 ± 0.066; S12H: 0.082 ± 0.072; S12D: 0.022 ± 0.072.

For S12Q, the abundance fitness is 0.115 ± 0.068. Next, S12R: -0.026 ± 0.047. With S12C, the abundance fitness was 0.155 ± 0.073.

K1D: the abundance fitness was -0.089 ± 0.092. For the variant K1N, the abundance fitness turned out to be 0.031 ± 0.12. Regarding K1R, the abundance fitness is -0.286 ± 0.074. In the case of K1I, the abundance fitness is -0.45 ± 0.27. Next, C4I: -0.956 ± 0.3; C4Y: -0.426 ± 0.2. As for C4P, the abundance fitness is -0.938 ± 0.19. Then C4D, with -1.1 ± 0.32; and C4Q, with -0.759 ± 0.12. Consider C64I, for which the abundance fitness is -0.478 ± 0.2.

Regarding C64F, the abundance fitness is -0.686 ± 0.21. C64K: the abundance fitness is -0.767 ± 0.2. Next, C64N: -0.483 ± 0.21; C64G: -0.582 ± 0.059. As for C64V, the abundance fitness is -0.836 ± 0.094. Take P41I: the abundance fitness is -0.071 ± 0.078.

Consider P41K, for which the abundance fitness was -0.037 ± 0.06. As for P41A, the abundance fitness came out at 0.056 ± 0.043. Then P41V, with 0.093 ± 0.04. Next, P41E: 0.057 ± 0.053. Next, P41Q: -0.045 ± 0.063. For the variant P41G, the abundance fitness amounted to 0.128 ± 0.039.

As to P41N, the abundance fitness is 0.123 ± 0.074. On to N44D, for which the abundance fitness came to 0.119 ± 0.086. For N44H, the abundance fitness was -0.314 ± 0.12.

As to N44S, the abundance fitness was -0.127 ± 0.05. Next, G34Q: 0.254 ± 0.057. Next, G34N: -0.058 ± 0.15. As to G34Y, the abundance fitness came to 0.075 ± 0.1. G34I: the abundance fitness was -0.336 ± 0.2. Consider G34W, for which the abundance fitness is -0.08 ± 0.048. In the case of G34T, the abundance fitness was -0.088 ± 0.063.

For G34R, the abundance fitness is -0.033 ± 0.037. Next, G34E: 0.157 ± 0.051; G34H: -0.282 ± 0.12. Regarding G34D, the abundance fitness came out at 0.116 ± 0.092. With T31A, the abundance fitness was -0.353 ± 0.061.

Source of the values: the Human Domainome abundance scans (Beltran et al. 2025).
